In article PMC2132603:

Biological target: T1, Sec17p (S. cerevisiae (endogenous in yeast vacuoles)), P32602
T1 chain: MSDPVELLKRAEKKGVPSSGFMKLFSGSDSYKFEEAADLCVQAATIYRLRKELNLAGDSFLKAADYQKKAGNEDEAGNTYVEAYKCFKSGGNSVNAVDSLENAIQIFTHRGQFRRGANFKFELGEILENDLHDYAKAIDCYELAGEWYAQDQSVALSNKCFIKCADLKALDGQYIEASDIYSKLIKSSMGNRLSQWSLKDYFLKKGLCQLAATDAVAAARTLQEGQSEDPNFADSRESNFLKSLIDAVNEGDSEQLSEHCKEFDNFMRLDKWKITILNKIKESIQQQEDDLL
Experiment: co-IP
Settings: remark: other sources report otherwise

- percent of Vam3p coprecipitated with Sec17p: > 50%
B1: Vam3p, Q12241 1-283 (natural protein)
chain: MSFFDIEAQSSKGNSQQEPQFSTNQKTKELSNLIETFAEQSRVLEKECTKIGSKRDSKELRYKIETELIPNCTSVRDKIESNILIHQNGKLSADFKNLKTKYQSLQQSYNQRKSLFPLKTPISPGTSKERKDIHPRTEAVRQDPESSYISIKVNEQSPLLHNEGQHQLQLQEEQEQQQQGLSQEELDFQTIIHQERSQQIGRIHTAVQEVNAIFHQLGSLVKEQGEQVTTIDENISHLHDNMQNANKQLTRADQHQRDRNKCGKVTLIIIIVVCMVVLLAVLS
